Assay results as given in the nanobody polyreactivity screen of Harvey et al. (2022).

Assay: yeast display, Sf9 membrane polyspecificity reagent, FACS + sequencing; frameworks hold sequencing errors
Procedure, shortened: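 Nanobodies from a synthetic yeast display library (Saccharomyces cerevisiae BJ5465), induced 36–48 hours with galactose, were stained 1 hour at 4 °C with 10% biotinylated, detergent-solubilized Sf9 membrane reagent, enriched on streptavidin microbeads, then FACS-sorted. Anti-HA (expression) and streptavidin (reagent binding) fluorescence set low and high (top ~1%) gates. Polyreactivity labels come from the gate of origin. Genes were colony-PCR amplified, MiSeq 2 × 250 sequenced and filtered by CDR length.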

Sequence | polyreactivity (PSR sort gate)
QVQLVESGGGLVQAGGSLRLSCAASGRTFAINAMGWSRQAPGKEWELVASIRWTDGTTYYADSVKGRFTISRDNAKNTVYLQMNSLKPEDTAVYYCAADAEGSASKYDYWGQGTQVTVSS | low polyreactivity
QVQLVESGGGLVQAGGSLRLSCAASGRTFAINTMGWYRPAPGKEREFVASITRRGGSTYYADSVKWRFTISRDNAKNTVYLQMNSLKREDNAVYYCNAELRWRLPARAAYYYWGQGTQVTFSS | high polyreactivity
QVQLVESGGGLVQAGGSLRLSCAASGRTFAIYAMGWSRQAPGKERELVAAIRWRDGSTYYADSVKGRFTISRDNAKNTVYLQMNSLKPEDTAVYYCAATSRVYVRGSYWKYGYWGQGTQVTVSS | high polyreactivity
QVQLVESGGGLVQAGGSLRLSCAASGRTFAIYVMGWYRQAPGKERELVAAISRSGGNTYYADSVKGRFTISRDNAKNTVYLQMNSLKPEDTAVYYCAARVRERYYWGQGTQVTVSS | high polyreactivity
QVQLVESGGGLVQAGGSLRLSCAASGRTFAKYAMGWYRQAPGKEREFVAAITRGDTTNYADSVKGRFTISRDNAKNTVYLQMNSLKPEDTAVYYCNADSLYYDYQTVDVQALDYWGQGTQVTVSS | low polyreactivity
QVQLVESGGGLVQAGGSLRLSCAASGRTFALNAMGWYRQAPGKERELVAAISWSSGRTYYADSVKGRFTISRDNAKNKVYLQMNSLKPEDTAVYYCAALVAHKGDYWGQGTQVTVSS | high polyreactivity
QVQLVESGGGLVQAGGSLRLSCAASGRTFALNAMGWYRQAPGKERELVAAISWSSGRTYYADSVKGRFTISRDNAKNTDYLKMNSLKPEDSAVYYCAALVAHKGDYWGQGTQVTVSS | high polyreactivity
QVQLVESGGGLVQAGGSLRLSCAASGRTFALYAMGWYRQAPGKERELVAAITFSGGSTSYADSVKGRFTISRDNAKYTVYLQMNSLKPEDTAVYYCAAYWYSLYYLYPYDYWGQGTQVTVSS | low polyreactivity
QVQLVESGGGLVQAGGSLRLSCAASGRTFAPYAMGWYRQAPGKERELVARITWSGTDTYYADSVKGRFTISRDNAKNNVYLQMNSLKPEDTAVYYCAADARYSRRYYYWGQGTQVTVSS | low polyreactivity
QVQLVESGGGLVQAGGSLRLSCAASGRTFAQYAMGWYRQAPGKERELVAGISRSGGSTYYADCVKGRFTISRDNAKNTVYLQMNSLKPEDTAVYYCAARWRGARWYYYWGQGTQVTVSS | high polyreactivity
QVQLVESGGGLVQAGGSLRLSCAASGRTFARNAMGWSRQAPGKERELVAAITRSGGSTYYADSVKGRFTISRDNAKNTVYLQMNSLKPEDTAVYYCAAVGTGSSLRYGYWGQGTQVTVSS | high polyreactivity
QVQLVESGGGLVQAGGSLRLSCAASGRTFARNAMGWYRQAPGKERELVAAISSSGGSTYYADSVKGRFTISRDNAKNTVYLQMNSLKPEDTAVYYCARYSSFTYDYWGQGTQVTVSS | high polyreactivity
QVQLVESGGGLVQAGGSLRLSCAASGRTFARYAMGSYRQAPGKERELDAAITSGGSTNYADSVKGRFTISRDNAKNTVYLQMNSLKPEDTAVYYCNARRRAPKGPIPAGNYWGQGTQVTVSS | high polyreactivity
QVQLVESGGGLVQAGGSLRLSCAASGRTFARYAMGWYRQAPGKERELVAAISSGGSTYYADSVKGRFTISRDNAKNTVYLQMNSLKPEDTAVYYCAAEWHYIYAYDYWGQGTQVTVSS | low polyreactivity
QVQLVESGGGLVQAGGSLRLSCAASGRTFARYVMGWYRQAPGKERELVAAINSGGNTYYADSVKGRFTISRDNAKNTVYLQMNSLKPEDTAVYYCAVKAARTYYWGQGTQVTVSS | high polyreactivity
QVQLVESGGGLVQAGGSLRLSCAASGRTFARYVMGWYRQAPGKERELVAAISGGGGSTYYADSVKGRFTISRDNAKNTVYLQMNSLKPEDTAVYYCAAVPEGPNTGDDANGLDYWGQGTQVTVSS | low polyreactivity
QVQLVESGGGLVQAGGSLRLSCAASGRTFATYAMAWYRQAPGKERELVAAISRSGSTTYYADSVKGRFTISRDNAKNTVYLQMNSLKPEDTAVYYCNAKFRKADYDYWGQGTQVTVSS | high polyreactivity
QVQLVESGGGLVQAGGSLRLSCAASGRTFATYAMGWYRQAPGKERELVAAITSGGSTYYADSVKGRFTISRDNAKNTVYLQMNSLKPEDTAVYYCAAARKYYGYNYWGQGTQVTVSS | high polyreactivity
QVQLVESGGGLVQAGGSLRLSCAASGRTFAVNALGWYRQAPGKERELVAAIRTGSTYYADSVKGRFTISRDNAKNTVYLQMNSLKPEDTAVYFCAAPYRADSYDYWGQGTQVTVSS | high polyreactivity
QVQLVESGGGLVQAGGSLRLSCAASGRTFAVNGKGWYRPAPGKERELVAAISSGGSTNYADSVKARFTISRDNAKNTVYLQLNSLKPEDTAVYYCAADYTRAHISYYYWGQGTQVTVSS | high polyreactivity
QVQLVESGGGLVQAGGSLRLSCAASGRTFAVYAMGWYRQAPGKERELVAAISYSGDSTYYADSVKGRFTISRDNAKYTVYLQMNSLKPEDTAVYYCAADFLVGLTAVAYEYWGQGTQVTVSS | low polyreactivity
QVQLVESGGGLVQAGGSLRLSCAASGRTFAVYAMGWYRQAPGKERELVAAITYGGGRTSYADSVKGRFTISRDYAKNTVYFQMKRLKPEDTAVYSCAADYYGTDYDYWGQGTQVTVSS | low polyreactivity

Sequence | polyreactivity (PSR sort gate)
QVQLVESGGGLVQAGGSLRLSCAASGRTFAWNTMGWYRQAPGKERELLAAISGSGGSTYYADSVKGRFTISRDYAKNTVYLQMNSLKPEDTAVYYCARRVDSYYGHTLYYYWGQGTQVTVSS | high polyreactivity
QVQLVESGGGLVQAGGSLRLSCAASGRTFAWYTMGWSRQEPGKERELVAAISGSGGSTYYADSVKGRFTISRDNAKNTVYLQMNSLKPEDTAVYYCARRVDSYYGHTRYYYWGQGTQVTVSS | high polyreactivity
QVQLVESGGGLVQAGGSLRLSCAASGRTFAWYTMGWYRKAPGKERELVAAISGSGGSTYYADSVKGRFTISRDNAKNTVYLQMNSLKPEDSAVYYCARRVDSYYGHTRYYYWGQGTQITVSS | high polyreactivity
QVQLVESGGGLVQAGGSLRLSCAASGRTFAYNAMGWYIQAPGKERELVASITSGGSTNYADSVKGRFTISRDNAKNTVYLQMNSLKPEDTAVYYCNKDGKYHRVLYDYWGQGTQVTVSS | low polyreactivity
QVQLVESGGGLVQAGGSLRLSCAASGRTFAYNAMGWYRQAPGKEREFVAGISRSGGSTYYADSVKGRFTISRDNAKNTVYLQMNSLKPEDTAVYYCAAQFYALPNVGTKYYSWGQGTQVTVSS | low polyreactivity
QVQLVESGGGLVQAGGSLRLSCAASGRTFAYNAMGWYRQAPGKERELVAAISRSGTITYYADSVKGRFTISRDNAKNTVYLQMNSLKPEDTAVYYCNKASTYPSYDYWGQGTQVTVSS | high polyreactivity
QVQLVESGGGLVQAGGSLRLSCAASGRTFAYNDMGWYRQAPGKERELGAAISWSDGTTYYADSVKGRFTISRDNAKNTVYLQMYSLKPEDTAVYYCNADDYLTSIYRYDYWGQGTQVTVSS | low polyreactivity
QVQLVESGGGLVQAGGSLRLSCAASGRTFAYNDMGWYRQAPGKERELVAAITSVASTYYADSVKGRFTISRDNAKNTVYLQMNSLKPEDTAVYYCAADTRSLRPRYQLYGEDSWGQGTQVTVSS | low polyreactivity
QVQLVESGGGLVQAGGSLRLSCAASGRTFAYNTMGWYRQAPGKEREFVAAIDSGDSTYYADSVKGRFTISRDNAKNTVYLQMNSLKPEDTAVYYCAARRYYGYDYWGQGTLVTVSS | high polyreactivity
QVQLVESGGGLVQAGGSLRLSCAASGRTFAYNTMGWYRQAPGKERELVAAITSGGSTYYADSVKGRFTISRDNAKNTVYLQINSLKPEDTAVYYCSAVDYWDYFYWRDDYWGQGTQVTVSS | low polyreactivity
QVQLVESGGGLVQAGGSLRLSCAASGRTFAYNVMGGYRQAPGKERELVAGISFGAGSTYYADSVKGRFTISRDNAKNTVYLQMNSLNPEDTAVYYCATRRRGTRYQLGYDYWGQGTQVTVSS | high polyreactivity
QVQLVESGGGLVQAGGSLRLSCAASGRTFAYYAMGWYRQAPGKERELVAAISTSGTRTYYADSVKGRFTISRDNAKNTVYLQMNSLKPEDTAVYYCAARYRYQYEFDYWGQGTQVTVSS | high polyreactivity
QVQLVESGGGLVQAGGSLRLSCAASGRTFAYYVMGWDRQAPGKERELVAAISWSAGSTYYADSVKGRFTISRDNAKNTVYLQMNSLKPEDTAVYYCAADYRFRYEYWGQGTQVTVSS | low polyreactivity
QVQLVESGGGLVQAGGSLRLSCAASGRTFDDYAMGWDRQAPGKERELVAAITQNGRDTYADSVKGRFTISRDNSKKYRLFTDVQPVTGRYRGLLLRCVRYEVNLYDYWGQGTQVTVST | low polyreactivity
QVQLVESGGGLVQAGGSLRLSCAASGRTFDGNAMGWYRQAPGKEGEFVATISTDGGSTHYADSVKGRFTISRDNAKNTVYLQMNSLKPEDTAVYYCAADTPWYDDNYDYWGQGTQVTVSS | low polyreactivity
QVQLVESGGGLVQAGGSLRLSCAASGRTFDGNAMGWYRQAPGKERELVAAISQGGGSTYYADSVKGRFTISRDNAKNTVYLQMNSLKPEDTAVYYCNAVGYTPRKPSKFDYWGQGTQVTVSS | low polyreactivity
QVQLVESGGGLVQAGGSLRLSCAASGRTFDGYAMGWYRQAPGKERELVAAISTSGVRTYYADSVKGRFTISRDNAKNTVYLQMNSLKPEDTAVYYCAADWTGGYEYWGQGTQVTVSS | high polyreactivity
QVQLVESGGGLVQAGGSLRLSCAASGRTFDGYMGWYRQAPGKERELVAAISYDTGSTYADSVKGRFTISRDNAKNTVYLQMNSLKPEDTAVYYCYGYPYQTLYGYWGQGTQVTVSS | low polyreactivity
QVQLVESGGGLVQAGGSLRLSCAASGRTFDHYAMGWYRQAPGKERELVAAITSGGSTYYADSVKGRFTISRDNAKNTVYLQRNSLKPEDTAVYYCNKDSSFWGYYIAQVNERDYWGQGTQVTVSS | low polyreactivity
QVQLVESGGGLVQAGGSLRLSCAASGRTFDIYAMGWYRQAPGKERELVADITWSDGTTYYADSVKGRFTISRDNAKNTVYLQMNSLKPEDTAVYYCNAYTVYAYDYWGQGTQVTVSS | low polyreactivity
QVQLVESGGGLVQAGGSLRLSCAASGRTFDRYAMGWYRQAPGKERELVAAISSGGSTYYADSVKGRFTISRDNAKNTVYLQMNSLKPEDTAVYYCAAGESGSFFIYYYWGQGTQVTVSS | low polyreactivity
